Assay [1] deals with TaSPA (Triticum aestivum). Put plainly: two-hybrid; Gal4 system (pGADT7 and pGBKT7), yeast strain Y187, read out by growth and β-galactosidase (LacZ) activity, three replicates.
The target in assay [2] is TaFUSCA3 N-terminal region (1st to 60th amino acids) (Triticum aestivum). The description is as above.

Among the data in paper PMC5487486 are fold β-galactosidase activity over AD-FUSCA3* with BD-SPA and fold β-galactosidase activity over the B3 domain with SPA values, retold here.

Sequence of TaSPA (Triticum aestivum) (Q7X9A8 whole entry, the tested form may be a part): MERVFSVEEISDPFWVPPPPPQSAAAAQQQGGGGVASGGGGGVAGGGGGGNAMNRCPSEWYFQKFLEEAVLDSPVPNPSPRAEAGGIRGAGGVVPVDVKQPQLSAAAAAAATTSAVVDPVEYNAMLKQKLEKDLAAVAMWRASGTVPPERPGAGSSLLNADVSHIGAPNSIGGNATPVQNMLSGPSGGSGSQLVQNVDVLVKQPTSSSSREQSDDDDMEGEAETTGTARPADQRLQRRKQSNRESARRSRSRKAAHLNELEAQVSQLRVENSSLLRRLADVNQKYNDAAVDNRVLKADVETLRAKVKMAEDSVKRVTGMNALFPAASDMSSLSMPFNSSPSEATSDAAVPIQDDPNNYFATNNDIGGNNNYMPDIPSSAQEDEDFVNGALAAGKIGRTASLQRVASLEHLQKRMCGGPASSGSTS

Consider TaFUSCA3 (natural protein), for which the fold β-galactosidase activity over AD-FUSCA3* with BD-SPA in assay [1] is 2 fold. “TaSPA (from UniProt Q7X9A8 1-425) (natural protein)” came in with a fold β-galactosidase activity over the B3 domain with SPA in assay [2] of 4 fold.
